{
  "source": "patent US20100028924",
  "proteins": {"B1": {"name": "wt rePON1-192K (protein)", "chain": "MAKLTALTLLGLGLALFDGQKSSFQTRFNVHREVTPVELPNCNLVKGVDNGSEDLEILPNGLAFISSGLKYPGIMSFDPDKSGKILLMDLNEEDPVVLELGITGNTLDISSFNPHGISTFTDEDNTVYLLVVNHPDSSSTVEVFKFQEEEKSLLHLKTIRHKLLPSVNDIVAVGPEHFYATNDHYFADPYLKSWEMHLGLAWSFVTYYSPNDVRVVAEGFDFANGINISPDGKYVYIAELLAHKIHVYEKHANWTLTPLKSLDFDTLVDNISVDPVTGDLWVGCHPNGMRIFYYDPKNPPGSEVLRIQDILSEEPKVTVVYAENGTVLQGSTVAAVYKGKLLIGTVFHKALYCEL"}, "B2": {"name": "rePON1-192R (protein)", "chain": "MAKLTALTLLGLGLALFDGQKSSFQTRFNVHREVTPVELPNCNLVKGVDNGSEDLEILPNGLAFISSGLKYPGIMSFDPDKSGKILLMDLNEEDPVVLELGITGNTLDISSFNPHGISTFTDEDNTVYLLVVNHPDSSSTVEVFKFQEEEKSLLHLKTIRHKLLPSVNDIVAVGPEHFYATNDHYFADPYLRSWEMHLGLAWSFVTYYSPNDVRVVAEGFDFANGINISPDGKYVYIAELLAHKIHVYEKHANWTLTPLKSLDFDTLVDNISVDPVTGDLWVGCHPNGMRIFYYDPKNPPGSEVLRIQDILSEEPKVTVVYAENGTVLQGSTVAAVYKGKLLIGTVFHKALYCEL"}, "B3": {"name": "rePON1-192Q (protein)", "chain": "MAKLTALTLLGLGLALFDGQKSSFQTRFNVHREVTPVELPNCNLVKGVDNGSEDLEILPNGLAFISSGLKYPGIMSFDPDKSGKILLMDLNEEDPVVLELGITGNTLDISSFNPHGISTFTDEDNTVYLLVVNHPDSSSTVEVFKFQEEEKSLLHLKTIRHKLLPSVNDIVAVGPEHFYATNDHYFADPYLQSWEMHLGLAWSFVTYYSPNDVRVVAEGFDFANGINISPDGKYVYIAELLAHKIHVYEKHANWTLTPLKSLDFDTLVDNISVDPVTGDLWVGCHPNGMRIFYYDPKNPPGSEVLRIQDILSEEPKVTVVYAENGTVLQGSTVAAVYKGKLLIGTVFHKALYCEL"}, "B4": {"name": "human PON1-192R (protein)", "chain": "AKLIALTLLGMGLALFRNHQSSYQTRLNALREVQPVELPNCNLVKGIETGSEDLEILPNGLAFISSGLKYPGIKSFNPNSPGKILLMDLNEEDPTVLELGITGSKFDVSSFNPHGISTFTDEDNAMYLLVVNHPDAKSTVELFKFQEEEKSLLHLKTIRHKLLPNLNDIVAVGPEHFYGTNDHYFLDPYLRSWEMYLGLAWSYVVYYSPSEVRVVAEGFDFANGINISPDGKYVYIAELLAHKIHVYEKHANWTLTPLKSLDFNTLVDNISVDPETGDLWVGCHPNGMKIFFYDSENPPASEVLRIQNILTEEPKVTQVYAENGTVLQGSTVASVYKGKLLIGTVFHKALYCEL"}, "B5": {"name": "human PON1-192Q (protein)", "chain": "AKLIALTLLGMGLALFRNHQSSYQTRLNALREVQPVELPNCNLVKGIETGSEDLEILPNGLAFISSGLKYPGIKSFNPNSPGKILLMDLNEEDPTVLELGITGSKFDVSSFNPHGISTFTDEDNAMYLLVVNHPDAKSTVELFKFQEEEKSLLHLKTIRHKLLPNLNDIVAVGPEHFYGTNDHYFLDPYLQSWEMYLGLAWSYVVYYSPSEVRVVAEGFDFANGINISPDGKYVYIAELLAHKIHVYEKHANWTLTPLKSLDFNTLVDNISVDPETGDLWVGCHPNGMKIFFYDSENPPASEVLRIQNILTEEPKVTQVYAENGTVLQGSTVASVYKGKLLIGTVFHKALYCEL"}},
  "biological_target": "rHDL-apoA-I (reconstituted discoidal HDL particles carrying apolipoprotein A-I)",
  "data": [
    {"protein": "B1", "values": [
      {"measurement": "A2 (%), amplitude of the slow phase of inactivation on apoA-I rHDL", "value": 100, "unit": "%"},
      {"measurement": "Kapp (µM), substrate TBBL", "value": 0.5, "unit": "µM"},
      {"measurement": "Kapp (µM), substrate paraoxon", "value": 0.6, "unit": "µM"},
      {"measurement": "Kapp (µM), substrate phenyl acetate", "value": 0.5, "unit": "µM"},
      {"measurement": "Kapp (µM), substrate γ-dodecanoic lactone", "value": 1.2, "unit": "µM"},
      {"measurement": "Kapp (µM), substrate δ-nonanoic lactone", "value": 1.3, "unit": "µM"},
      {"measurement": "Kapp (µM), substrate δ-valerolactone", "value": 1.3, "unit": "µM"},
      {"measurement": "Vmax (%), enzymatic activation by apoA-I rHDL, substrate TBBL", "value": 791, "unit": "%"},
      {"measurement": "Vmax (%), enzymatic activation by apoA-I rHDL, substrate paraoxon", "value": 222, "unit": "%"},
      {"measurement": "Vmax (%), enzymatic activation by apoA-I rHDL, substrate phenyl acetate", "value": 425, "unit": "%"},
      {"measurement": "Vmax (%), enzymatic activation by apoA-I rHDL, substrate γ-dodecanoic lactone", "value": 1830, "unit": "%"},
      {"measurement": "Vmax (%), enzymatic activation by apoA-I rHDL, substrate δ-nonanoic lactone", "value": 1580, "unit": "%"},
      {"measurement": "Vmax (%), enzymatic activation by apoA-I rHDL, substrate δ-valerolactone", "value": 1720, "unit": "%"},
      {"measurement": "fold higher fraction of HDL-bound protein than the Q isozyme (from inactivation/stability measurements; reference rePON1-192Q)", "value": "a 3-fold higher fraction of HDL-bound protein as revealed from the stability measurements"}
    ]},
    {"protein": "B2", "values": [
      {"measurement": "A2 (%), amplitude of the slow phase of inactivation on apoA-I rHDL", "value": 90, "unit": "%"},
      {"measurement": "Kapp (µM), substrate TBBL", "value": 0.4, "unit": "µM"},
      {"measurement": "Kapp (µM), substrate paraoxon", "value": 0.8, "unit": "µM"},
      {"measurement": "Kapp (µM), substrate phenyl acetate", "value": 0.8, "unit": "µM"},
      {"measurement": "Kapp (µM), substrate γ-dodecanoic lactone", "value": 0.9, "unit": "µM"},
      {"measurement": "Kapp (µM), substrate δ-nonanoic lactone", "value": 1.5, "unit": "µM"},
      {"measurement": "Kapp (µM), substrate δ-valerolactone", "value": 1.1, "unit": "µM"},
      {"measurement": "Vmax (%), enzymatic activation by apoA-I rHDL, substrate TBBL", "value": 579, "unit": "%"},
      {"measurement": "Vmax (%), enzymatic activation by apoA-I rHDL, substrate paraoxon", "value": 200, "unit": "%"},
      {"measurement": "Vmax (%), enzymatic activation by apoA-I rHDL, substrate phenyl acetate", "value": 336, "unit": "%"},
      {"measurement": "Vmax (%), enzymatic activation by apoA-I rHDL, substrate γ-dodecanoic lactone", "value": 1260, "unit": "%"},
      {"measurement": "Vmax (%), enzymatic activation by apoA-I rHDL, substrate δ-nonanoic lactone", "value": 1350, "unit": "%"},
      {"measurement": "Vmax (%), enzymatic activation by apoA-I rHDL, substrate δ-valerolactone", "value": 1400, "unit": "%"},
      {"measurement": "fold higher fraction of HDL-bound protein than the Q isozyme (from inactivation/stability measurements; reference rePON1-192Q)", "value": "a 3-fold higher fraction of HDL-bound protein as revealed from the stability measurements"},
      {"measurement": "reduction of Vmax of stimulation by rHDL compared to wt rePON1-192K", "value": "10-30% reduction of Vmax"}
    ]},
    {"protein": "B3", "values": [
      {"measurement": "A2 (%), amplitude of the slow phase of inactivation on apoA-I rHDL", "value": 70, "unit": "%"},
      {"measurement": "Kapp (µM), substrate TBBL", "value": 0.5, "unit": "µM"},
      {"measurement": "Kapp (µM), substrate paraoxon", "value": 0.8, "unit": "µM"},
      {"measurement": "Kapp (µM), substrate phenyl acetate", "value": 0.8, "unit": "µM"},
      {"measurement": "Kapp (µM), substrate γ-dodecanoic lactone", "value": 0.6, "unit": "µM"},
      {"measurement": "Kapp (µM), substrate δ-nonanoic lactone", "value": 0.6, "unit": "µM"},
      {"measurement": "Kapp (µM), substrate δ-valerolactone", "value": 1.1, "unit": "µM"},
      {"measurement": "Vmax (%), enzymatic activation by apoA-I rHDL, substrate TBBL", "value": 340, "unit": "%"},
      {"measurement": "Vmax (%), enzymatic activation by apoA-I rHDL, substrate paraoxon", "value": 128, "unit": "%"},
      {"measurement": "Vmax (%), enzymatic activation by apoA-I rHDL, substrate phenyl acetate", "value": 165, "unit": "%"},
      {"measurement": "Vmax (%), enzymatic activation by apoA-I rHDL, substrate γ-dodecanoic lactone", "value": 382, "unit": "%"},
      {"measurement": "Vmax (%), enzymatic activation by apoA-I rHDL, substrate δ-nonanoic lactone", "value": 778, "unit": "%"},
      {"measurement": "Vmax (%), enzymatic activation by apoA-I rHDL, substrate δ-valerolactone", "value": 481, "unit": "%"},
      {"measurement": "reduction of Vmax of stimulation by rHDL compared to wt rePON1-192K", "value": "50-80% reduction of Vmax compared to wt rePON1-192K"}
    ]},
    {"protein": "B4", "values": [
      {"measurement": "A2 (%), amplitude of the slow phase of inactivation on apoA-I rHDL", "value": 87, "unit": "%"},
      {"measurement": "activation level of lactonase activity by rHDL-apoA-I, against 192Q", "value": "about 2-fold higher activation level than 192Q"},
      {"measurement": "stated: enzymatic activity stimulated by a 50-fold molar excess of rHDl-apoA-I (% Activity Stimulation, delipidated enzyme as reference), six substrates [panel B]", "value": "dark bars: about 650 to 750 % with γ-dodecanoic lactone, δ-valerolactone and δ-nonanoic lactone, about 450 % with TBBL, about 200 to 250 % with phenyl acetate and paraoxon; higher than the 192Q bar with every lactone"}
    ]},
    {"protein": "B5", "values": [
      {"measurement": "A2 (%), amplitude of the slow phase of inactivation on apoA-I rHDL", "value": 72, "unit": "%"},
      {"measurement": "stated: enzymatic activity stimulated by a 50-fold molar excess of rHDl-apoA-I (% Activity Stimulation, delipidated enzyme as reference), six substrates [panel B]", "value": "white bars: about 280 % with γ-dodecanoic lactone, about 420 to 440 % with δ-valerolactone and δ-nonanoic lactone, about 250 % with TBBL, about 170 to 210 % with phenyl acetate and paraoxon; lower than the 192R bar with every lactone, close to it with phenyl acetate and paraoxon"}
    ]}
  ]
}
